Publication PMC3923779, “Iron Acquisition in Bacillus cereus: The Roles of IlsA and Bacillibactin in Exogenous Ferritin Iron Mobilization” (PLoS Pathogens, 2014)

B1: recombinant mouse H-chain ferritin (natural protein, UniProt P09528 1-182, looked up)
chain: MTTASPSQVRQNYHQDAEAAINRQINLELYASYVYLSMSCYFDRDDVALKNFAKYFLHQSHEEREHAEKLMKLQNQRGGRIFLQDIKKPDRDDWESGLNAMECALHLEKSVNQSLLELHKLATDKNDPHLCDFIETYYLSEQVKSIKELGDHVTNLRKMGAPEAGMAEYLFDKHTLGHGDES
notes: mouse ferritin H-chain, recombinant homopolymer; also called MoHF; recombinant mouse homopolymer H-chain; copies: 24
B2: IlsA (Iron-regulated leucine rich surface protein type A), recombinant, without signal peptide (natural protein, Bacillus cereus strain ATCC14579, UniProt Q81G77 29-760, looked up)
chain: ALKVEANQSVAAASDRTYDTEIKIYKDQKDEPSMVSQYIKDPKVTIAAGKKIVTVTMQDSDYFQYLRIEDKNQPGVFHDVKVLSEDKRKNGTKVVQFEIGEFEKKHNMQMHILIPAIGYDHKYQVQFEIKDPTVGNKETEKPDDNSNSGNTETDNPVDNQNMITDNKLRELVNKKVFNRKDLNTPITKEDLLQVKDLFLNTNEILDYSALKYMPNLKSLTVANAKIKDPSFFANLKQLNHLALRGNEFADVTPLVKMDNLESLDLSNNKITNVAPLTEMKNVKSLFLSGNQIEDVTALAKMEQLDYLNLANNKITNVAPLSNLKNVTYLTLAGNQIEDIKPLYTLPLKDLVLTRNKVKDLSGIDQLNQLQELWIGKNEITDVTPLSKMTQLKILNLPNNELKDITPLSSLVNLQKLDLEANYISDLSPVSNLKKLVFLSFVANEIRDVRPVIELSKTAYINVQNQKVFLEETEVNKEVKVPIYEKDGEISTKIRLKSDNGTYSNGVVKWSTPGEKVYEFGVKDPFADTGIFFTGSVIQNVVESKDGNTSKEDEKTEVVEFKDVPKGHWSEEAINYLAKEKLFIGYGNGEFGFGDNITRGQVALLIQRYLKLENNLEQKTAFTDTKGNMYETAIDAVVQAGIMTGYGNGMFRPDGVLTRYEMSVVLQRVFQLKENENSAENFKDVPNGHWAKGYVKALVDNKISKGDGEGNFLGDNFVTREQYAQFLYNAIKK
notes: IlsA of Bacillus cereus strain ATCC14579, NCBI gene number Bc1331; Holo form (hemin added until saturation of 80%) in the ITC; also called Holo-IlsA; full-length IlsA; source: E. coli C600 ΔhemA, purified (Bulk GST Purification Module, eluted with PreScission Protease); produced in apo-form, hemin added to reconstitute the holo-protein

Assays:
Assay in all cases: ITC; 16 injections of 3 µl of 229 µM holo-IlsA into the cell with 1 µM ferritin; 25°C; 50 mM Tris-HCl pH 7, 150 mM NaCl, 1 mM EDTA, 1 mM DTT; model of one set of independent binding sites; apparent values
Details in all cases: both partners purified
[1] = biological target: B2
[2] = biological target: T1, recombinant human H-chain ferritin (human, UniProt P02794 1-183)
T1 construct: human ferritin H-chain, recombinant homopolymer of 24 H-subunits; loaded with 500 Fe/shell in the iron release assay; also called HuHF; holoHuHF; copies: 24

[3] = biological target: T2, recombinant human L-chain ferritin (human, UniProt P02792 1-175)
T2 construct: human ferritin L-chain, recombinant homopolymer of 24 L-subunits; also called HuLF; recombinant human homopolymer L-chain; copies: 24

[4] = biological target: B1
[5] = biological target: T3, recombinant human heteropolymer H/L ferritin (human, UniProt P02794 1-183; P02792 1-175)
T3 construct: human ferritin H-chain in the recombinant heteropolymer; human ferritin L-chain in the recombinant heteropolymer; The results print ∼20 H-chains and 4 L-chains; also called HuH/LF; recombinant heteropolymer ferritin; copies: 20 + 4
T3 sequence (P02794 whole entry, chain 1 of 2): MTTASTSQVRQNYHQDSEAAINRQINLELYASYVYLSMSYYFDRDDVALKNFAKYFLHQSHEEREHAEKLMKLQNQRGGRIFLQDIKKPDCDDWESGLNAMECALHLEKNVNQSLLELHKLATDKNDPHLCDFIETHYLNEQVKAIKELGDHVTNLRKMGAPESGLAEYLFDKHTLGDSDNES
T3 sequence (P02792 whole entry, chain 2 of 2): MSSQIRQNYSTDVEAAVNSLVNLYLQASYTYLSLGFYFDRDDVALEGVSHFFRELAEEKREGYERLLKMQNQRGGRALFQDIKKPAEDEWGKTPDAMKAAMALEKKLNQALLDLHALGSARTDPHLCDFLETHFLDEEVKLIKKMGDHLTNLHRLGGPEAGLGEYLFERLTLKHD

T1 sequence (P02794 whole entry): as the sequence (P02794 whole entry, chain 1 of 2) above
T2 sequence (P02792 whole entry): as the sequence (P02792 whole entry, chain 2 of 2) above

Binder | Ka [1] [M⁻¹] | dH [2] [kcal/mol] | stoichiometry N [2] [IlsA per ferritin shell] | dH [3] [kcal/mol] | stoichiometry N [3] [IlsA per ferritin shell] | dH [4] [kcal/mol] | stoichiometry N [4] [IlsA per ferritin shell] | dH [5] [kcal/mol] | stoichiometry N [5] [IlsA per ferritin shell]
B1 | 2.07e+06 | – | – | – | – | – | – | – | –
B2 | – | -0.982 | 25.2 | -2.08 | 23.9 | -0.801 | 24.9 | -2.08 | 23.8
